The target in test [1] is TRIM27 (UniProt P14373). In words: GFP-NanoTrap IP of GFP-USP7, immunoblot. Particulars: reference: wild type GFP-USP7; sites S18. (In western blotting, separated proteins are transferred to a membrane and probed.)
Test [2] deals with TCEAL4 (UniProt Q96EI5). Briefly: GFP-NanoTrap IP, blot of lower MW TCEAL4. Particulars: reference: wild type GFP-USP7; sites S18.

Regarding USP7 (from UniProt Q93009) S18A, the “binding against the reference” value in test [1] and in test [2] was “stronger” each time.

The values are drawn from article doi:10.1101/2021.07.07.451439.
